Positions count from the first letter of the chain named.
Assays:
Assay in all cases: SPR; KD relative to WT C2;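 also: biacore SPR at 37 °C, anti-C2 mAbs captured on an anti-human IgG chip, alanine or serine C2 surface mutants tested, KD from 1:1 fit compared with wild-type C2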
[1] = target: T1, human C2 N268A (human, UniProt P06681 21-752)
T1 sequence: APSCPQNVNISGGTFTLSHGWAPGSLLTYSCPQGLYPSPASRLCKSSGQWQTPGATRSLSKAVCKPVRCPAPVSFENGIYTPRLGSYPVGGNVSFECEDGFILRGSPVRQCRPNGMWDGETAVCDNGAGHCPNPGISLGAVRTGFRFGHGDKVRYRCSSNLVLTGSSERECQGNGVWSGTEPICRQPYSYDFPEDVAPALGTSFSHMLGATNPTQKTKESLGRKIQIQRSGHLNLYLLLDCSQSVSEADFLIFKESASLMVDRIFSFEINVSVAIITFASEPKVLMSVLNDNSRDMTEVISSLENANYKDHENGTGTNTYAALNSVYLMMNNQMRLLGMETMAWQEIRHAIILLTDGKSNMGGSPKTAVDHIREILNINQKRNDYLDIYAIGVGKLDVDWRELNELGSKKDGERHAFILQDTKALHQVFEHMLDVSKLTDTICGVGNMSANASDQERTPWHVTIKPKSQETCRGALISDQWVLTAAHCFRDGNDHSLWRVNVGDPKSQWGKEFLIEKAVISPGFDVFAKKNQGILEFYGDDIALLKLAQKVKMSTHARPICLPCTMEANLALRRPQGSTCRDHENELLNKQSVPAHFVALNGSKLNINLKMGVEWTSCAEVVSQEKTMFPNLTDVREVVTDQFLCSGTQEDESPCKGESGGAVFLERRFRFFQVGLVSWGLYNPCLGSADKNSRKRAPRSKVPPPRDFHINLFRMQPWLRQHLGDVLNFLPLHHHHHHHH

[2] = target: T2, human C2 D269A (human, UniProt P06681 21-752)
T2 sequence: T1 sequence with A248N, D249A

[3] = target: T3, human C2 T317A (human, UniProt P06681 21-752)
T3 sequence: T1 sequence with A248N, T297A

[4] = target: T4, human C2 D404A (human, UniProt P06681 21-752)
T4 sequence: T1 sequence with A248N, D384A

Fold diff [1]: 2 fold | Fold diff [2]: 1 fold | Fold diff [3]: 1 fold | Fold diff [4]: 3 fold
B1: RF16-214 (antibody, V domains shown)
VH: EVQLLESGGGLVQPGGSLRLSCAASGFTFSWYQMMWVRQAPGKGLEWVSRIYPSGGGTAYADSVKGRFTISRDNSKNTLYLQMNSLRAEDTAVYYCARDAGYGDNWGQGTLVTVSS
VL: QSALTQPPSVSVSPGQTASITCSGDKLGEKYASWYQQKAGQSPVMVIYQDRKRPSGIPERFSGSNSGNTATLTISGTQAMDEADYYCQAWDTRAVVFGGGTKLTVLG
